{"source": "patent US8541236B2", "about": "“Mutant apolipoprotein A-1 polypeptide with increased resistance to oxidation and reactive carbonyls” (University of Washington, priority 2006, dated 2013)", "key": {"ABCA1 [1]": {"molecular_target": "T1, ABCA1 (Homo sapiens, UniProt O95477)", "T1 sequence (O95477 whole entry)": "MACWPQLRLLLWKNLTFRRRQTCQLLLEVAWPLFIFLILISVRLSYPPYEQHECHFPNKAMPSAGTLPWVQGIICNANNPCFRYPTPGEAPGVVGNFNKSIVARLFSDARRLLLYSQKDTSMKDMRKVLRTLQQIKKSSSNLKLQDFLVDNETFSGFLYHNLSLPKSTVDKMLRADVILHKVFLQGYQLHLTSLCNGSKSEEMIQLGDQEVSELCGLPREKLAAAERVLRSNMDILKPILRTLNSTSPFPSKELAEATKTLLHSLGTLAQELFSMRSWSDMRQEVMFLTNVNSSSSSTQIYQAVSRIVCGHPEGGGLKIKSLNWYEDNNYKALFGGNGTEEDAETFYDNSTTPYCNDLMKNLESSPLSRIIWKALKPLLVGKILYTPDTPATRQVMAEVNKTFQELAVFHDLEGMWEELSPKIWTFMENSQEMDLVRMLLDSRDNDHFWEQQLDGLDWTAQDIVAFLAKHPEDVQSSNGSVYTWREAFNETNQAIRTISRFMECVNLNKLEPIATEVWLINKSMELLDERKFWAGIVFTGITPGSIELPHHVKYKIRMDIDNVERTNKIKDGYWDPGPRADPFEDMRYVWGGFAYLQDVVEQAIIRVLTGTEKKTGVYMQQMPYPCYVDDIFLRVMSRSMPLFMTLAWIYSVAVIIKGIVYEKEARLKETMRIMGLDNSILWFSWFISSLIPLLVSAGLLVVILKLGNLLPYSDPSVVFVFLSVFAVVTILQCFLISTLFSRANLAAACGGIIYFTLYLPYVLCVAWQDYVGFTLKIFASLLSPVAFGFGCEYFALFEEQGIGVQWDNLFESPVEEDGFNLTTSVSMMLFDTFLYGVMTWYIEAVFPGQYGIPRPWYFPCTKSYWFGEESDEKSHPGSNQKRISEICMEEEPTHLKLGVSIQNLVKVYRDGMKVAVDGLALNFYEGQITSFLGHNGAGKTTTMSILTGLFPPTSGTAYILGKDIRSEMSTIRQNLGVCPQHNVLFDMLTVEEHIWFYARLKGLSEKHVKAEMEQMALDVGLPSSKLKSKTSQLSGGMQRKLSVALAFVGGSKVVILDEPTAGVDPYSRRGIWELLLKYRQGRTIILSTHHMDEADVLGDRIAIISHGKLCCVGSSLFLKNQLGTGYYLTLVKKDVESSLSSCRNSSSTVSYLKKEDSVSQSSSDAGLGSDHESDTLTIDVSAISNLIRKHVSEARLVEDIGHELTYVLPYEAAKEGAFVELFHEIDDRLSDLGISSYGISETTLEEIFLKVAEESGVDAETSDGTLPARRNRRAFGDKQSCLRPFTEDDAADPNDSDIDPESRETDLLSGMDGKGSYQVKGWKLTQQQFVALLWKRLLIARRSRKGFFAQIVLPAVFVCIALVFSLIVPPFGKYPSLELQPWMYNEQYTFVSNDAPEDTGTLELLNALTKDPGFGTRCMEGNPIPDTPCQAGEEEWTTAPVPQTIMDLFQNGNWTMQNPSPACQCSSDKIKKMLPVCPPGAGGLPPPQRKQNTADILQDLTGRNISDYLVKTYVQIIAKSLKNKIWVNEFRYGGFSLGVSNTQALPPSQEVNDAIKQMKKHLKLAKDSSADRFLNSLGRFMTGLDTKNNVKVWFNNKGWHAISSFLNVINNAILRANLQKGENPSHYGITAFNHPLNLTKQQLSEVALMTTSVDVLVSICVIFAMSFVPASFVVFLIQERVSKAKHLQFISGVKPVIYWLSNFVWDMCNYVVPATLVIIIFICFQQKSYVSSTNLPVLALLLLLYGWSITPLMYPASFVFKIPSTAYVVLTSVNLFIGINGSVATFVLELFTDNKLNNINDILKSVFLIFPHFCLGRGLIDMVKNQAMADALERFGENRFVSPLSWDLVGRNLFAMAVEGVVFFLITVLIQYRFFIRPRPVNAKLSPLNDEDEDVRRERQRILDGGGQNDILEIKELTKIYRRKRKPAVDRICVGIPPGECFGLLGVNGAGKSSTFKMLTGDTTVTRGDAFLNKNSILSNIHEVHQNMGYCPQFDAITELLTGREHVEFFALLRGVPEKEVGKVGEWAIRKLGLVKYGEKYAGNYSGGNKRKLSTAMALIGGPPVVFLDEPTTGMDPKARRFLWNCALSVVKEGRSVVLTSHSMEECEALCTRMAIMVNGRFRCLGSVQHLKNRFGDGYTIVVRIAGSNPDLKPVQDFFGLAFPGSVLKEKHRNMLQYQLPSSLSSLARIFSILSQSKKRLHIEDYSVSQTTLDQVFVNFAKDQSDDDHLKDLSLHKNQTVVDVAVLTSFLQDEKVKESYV", "set-up": "expressed in transfected cells; host or cells: BHK (baby hamster kidney) cells", "conditions": "cited from earlier work"}, "ABCA1 [2]": {"molecular_target": "T1, ABCA1", "experiment": "Radiolabeled cholesterol efflux assay from ABCA1-transfected BHK cells", "type": "cell-based", "set-up": "expressed in transfected cells; host or cells: BHK (baby hamster kidney) cells, mifepristone-inducible GeneSwitch system", "conditions": "apoA-I treated with increasing concentrations of MDA"}, "[3]": {"molecular_target": "T2, Lecithin Cholesterol Acyltransferase (LCAT) (Homo sapiens, UniProt P04180)", "T2 sequence (P04180 25-440)": "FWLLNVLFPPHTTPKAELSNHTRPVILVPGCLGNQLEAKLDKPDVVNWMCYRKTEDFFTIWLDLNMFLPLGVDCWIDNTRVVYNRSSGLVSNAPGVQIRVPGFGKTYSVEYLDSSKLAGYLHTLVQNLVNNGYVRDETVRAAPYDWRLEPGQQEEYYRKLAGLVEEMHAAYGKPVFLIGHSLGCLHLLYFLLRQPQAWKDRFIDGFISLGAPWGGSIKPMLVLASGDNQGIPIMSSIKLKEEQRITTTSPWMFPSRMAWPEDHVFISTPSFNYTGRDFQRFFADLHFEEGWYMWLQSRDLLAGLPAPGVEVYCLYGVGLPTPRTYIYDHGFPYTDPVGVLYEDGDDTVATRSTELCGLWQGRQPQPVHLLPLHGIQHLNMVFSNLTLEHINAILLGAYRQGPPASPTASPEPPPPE", "experiment": "Activation of LCAT after oxidation with MPO", "type": "biochemical", "conditions": "apoA-I exposed to MPO", "method": "Reactions with isolated HDL (1 mg protein/ml) were carried out at 37° C. for 1 h in 50 mM sodium phosphate buffer (pH 7.4) containing 100 uM DTPA and 100 nM MPO. Reactions were initiated by adding hydrogen peroxide and terminated by adding a 20-fold molar excess (relative to peroxide) of Met."}, "[4]": {"experiment": "Thioflavin T binding assay and electron microscopy for amyloid formation", "type": "physicochemical", "method": "A thioflavin T binding assay was used to investigate whether chlorination of apoA-I promotes amyloid formation. Thioflavin T is known to bind rapidly to amyloid fibrils and undergoes a dramatic increase in fluorescence at 485 nm upon excitation at 455 nm (see Naiki, H., et al., Anal. Biochem. 177:244-249, 1989). apoA-I was chlorinated by treatment with HOCl or the MPO system and a time course of thioflavin T binding to treated apoA-I was carried out over 60 minutes as shown in FIG. 6B."}, "[5]": {"experiment": "Denaturing SDS-PAGE analysis of oxidant-treated apoA-I", "type": "physicochemical", "method": "In order to analyze the effects of HOCl and acrolein on apoA-I structure, purified apoA-I was treated with a molar ratio of HOCl at mol:mol concentrations of 0, 5, 10, or 25; or with a molar ratio of acrolein at mol:mol concentrations of 0, 1, 2, 5, 10, or 20."}, "ABCA1 [6]": {"molecular_target": "T1, ABCA1", "experiment": "Radiolabeled cholesterol efflux assay from ABCA1-transfected BHK cells", "type": "cell-based", "set-up": "expressed in transfected cells; host or cells: BHK (baby hamster kidney) cells, mifepristone-inducible GeneSwitch system", "conditions": "for cholesterol efflux promoted: after oxidation by the MPO system", "method": "The effect of oxidant treatment of apoA-I on the ability of apoA-I to promote cholesterol efflux from cells via the ABCA1 pathway was measured as follows.\nA radiolabeled cholesterol efflux assay from ABCA1-transfected cells was carried out as described in Shao, et al., J. Biol. Chem. 280(7):5983-5993, 2005. Briefly described, baby hamster kidney (BHK) cells expressing mifepristone-inducible human ABCA1 were generated as described in Vaughan, A. M., et al., J. Lipid. Res. 44:1373-1380, 2003. Cellular cholesterol was labeled by adding 1 μCi/ml [^3H]cholesterol (Perkin Elmer Life Sciences) to the growth medium. Twenty-four hours later, strong expression of ABCA1 was induced by incubating the cells for 20 h with Dulbecco's modified Eagle's medium containing 1 mg/ml bovine serum albumin and 1 nM mifepristone. To measure cholesterol efflux, mock or ABCA1-transfected cells were incubated with Dulbecco's modified Eagle's medium/bovine serum albumin with or without apoA-I treated under the following conditions:\n(1) purified apoA-I was treated for 1 hour with increasing concentrations of HOCl, H2O2 with MPO plus NACl, ONOO, or H2O2 with MPO plus NO2;\n(2) purified apoA-I was treated for 24 hours with a molar ratio (mol:mol) of 0, 1:25, or 1:50 of acrolein; and\n(3) peptide 2F was treated for 1 hour with a 25 molar excess of HOCl.\nAfter 2 hour incubations with apoA-I, the medium and cells were assayed for [^3H]cholesterol as described in Vaughan, A. M., et al., J. Lipid. Res. 44:1373-1380, 2003. Cholesterol efflux mediated by apoA-I was calculated as the percentage of total [^3H]cholesterol (medium plus cells) released into the medium after subtracting the value obtained with Dulbecco's modified Eagle's medium/bovine serum albumin alone. Acrolein adducts of K226 were measured by MS.\nBHK cells transfected with a mifepristone-inducible GeneSwitch (Invitrogen) system containing a human ABCA1 cDNA were incubated with serum-free medium with or without 10 nM mifipristone for 24 h to generate cells expressing virtually no or high levels of ABCA1, respectively (see Vaughan, A. M., and J. F. Oram, J. Lipid Res. 44:1373-1380, 2003). To radiolabel cellular cholesterol, [^3H]cholesterol was added to the acetyl LDL medium for macrophages and the growth medium prior to ABCA1 induction for BHK cells. Efflux of [^3H]cholesterol was measured after a 2 h incubation in medium with or without apoA-I (Tang, C., et al., J. Biol. Chem. 279:7622-7628, 2004)."}, "[7]": {"experiment": "Far UV circular dichroism of HOCl-treated apoA-I", "type": "physicochemical", "conditions": "treated 1 hour with HOCl", "method": "Secondary structure of apoA-I was determined using far UV circular dichroism."}, "[8]": {"system": "Baby Hamster Kidney (BHK) cells transfected with a transfection vector alone (Mock)", "experiment": "3H-cholesterol efflux from Mock-transfected BHK cells (ABCA1-independent, Example 11)", "type": "cell-based", "conditions": "20 μg/ml peptide, HOCl-treated (5 molar ratio HOCl to peptide), 4 hours", "method": "(§1) Baby Hamster Kidney (BHK) cells were transfected with a cDNA expressing ABCA1 (ABCA1) or with a transfection vector alone (Mock). The transfected cells were radiolabeled with ^3H-cholesterol, washed and then incubated for 4 hours with media containing 20 μg/ml untreated or HOCl-treated (5 molar ratio HOCl to peptide) peptide 2F (SEQ ID NO:9). At the end of the incubation, the amount of ^3H-cholesterol (efflux) released from the cells was measured and expressed as the percent total (media plus cells) ^3H-cholesterol."}, "ABCA1 [9]": {"molecular_target": "T1, ABCA1", "experiment": "3H-cholesterol efflux from ABCA1-transfected BHK cells, 4 hour incubation with peptide (Example 11)", "type": "cell-based", "set-up": "expressed in transfected cells; host or cells: BHK (baby hamster kidney) cells", "conditions": "20 μg/ml peptide, HOCl-treated (5 molar ratio HOCl to peptide)", "method": "as §1"}, "[10]": {"experiment": "ESI-MS analysis of chlorination after incubation with HOCl", "type": "physicochemical", "conditions": "incubated in the presence of HOCl"}}, "note": "Entries after “also recorded” stand apart in the source; their conditions may differ."}
{"substance": "Ac-DWFKAFYDKVAEKFKEAF-NH2 [4F, 4F apoA-I mimetic peptide, unmodified original]", "values": [{"measurement": "removing cell lipids by the ABCA1 pathway", "setting": "ABCA1 [1]", "result": "mimic apoA-I"}]}
{"substance": "apoA-I: mature form of wild type human apoA-I, 243 amino acid polypeptide, purified from HDL", "values": [{"measurement": "cholesterol efflux activity", "setting": "ABCA1 [2]", "result": "progressively and extensively impaired"}, {"measurement": "ability to activate LCAT", "setting": "[3]", "result": "looses its ability to activate LCAT; also recorded: loss of its ability"}, {"measurement": "thioflavin T binding", "setting": "[4]; chlorination by HOCl or the complete MPO system, versus untreated apoA-I", "result": "markedly increased"}, {"measurement": "amyloid-like structures", "setting": "[4]; nitrated apoA-I", "result": "failed to reveal amyloid-like structures"}, {"measurement": "amyloid-like structures", "setting": "[4]; untreated apoA-I", "result": "no detectable amyloid-like structures"}, {"measurement": "higher molecular weight species on SDS-PAGE", "setting": "[5]; increasing concentrations of HOCl", "result": "generated higher molecular weight species that were resistant to SDS"}, {"measurement": "higher molecular weight species on SDS-PAGE", "setting": "[5]; increasing concentrations of acrolein", "result": "generated higher molecular weight species that were resistant to SDS"}, {"measurement": "higher molecular weight species on SDS-PAGE", "setting": "[5]; nitrated by reagent ONOO- or the complete MPO/H2O2/NO2 system", "result": "not observed"}, {"measurement": "correlation (R) of impaired cholesterol removal with adduction of K226", "setting": "ABCA1 [6]; acrolein-treated apoA-I", "result": 0.988}, {"measurement": "cholesterol efflux activity", "setting": "ABCA1 [6]; after nitration of apoA-I (H2O2 with MPO plus NO2)", "result": "fails to affect; also recorded: only a small inhibitory effect"}, {"measurement": "cholesterol efflux promoted", "setting": "ABCA1 [6]", "result": "significantly decreased"}, {"measurement": "cholesterol efflux activity", "setting": "ABCA1 [6]; apoA-I treated 1 hour with increasing concentrations of HOCl or of H2O2 with the complete chlorinating MPO system", "result": "progressively and extensively impaired"}, {"measurement": "ability to remove cellular cholesterol by the ABCA1 pathway", "setting": "ABCA1 [6]; apoA-I treated 24 hours with increasing concentrations of acrolein", "result": "progressively impaired"}, {"measurement": "cholesterol efflux activity", "setting": "ABCA1 [6]; apoA-I treated with ONOO-", "result": "no effect"}, {"measurement": "ability to promote cholesterol efflux", "setting": "ABCA1 [6]; complete MPO system with increasing H2O2 or increasing HOCl, then PilB to reduce Met(O) back to Met", "result": "partially restored"}, {"measurement": "mean residue molar ellipticity at 222 nm", "setting": "[7]", "result": "concentration-dependent increase"}]}
{"substance": "Ac-DWLKAFYDKVAEKLKEAF-NH2 [2F, 2F apoA-I mimetic peptide, unmodified]", "values": [{"measurement": "ability to remove cholesterol by ABCA1-independent mechanism", "setting": "[8]", "result": "significantly reduced"}, {"measurement": "removing cell lipids by the ABCA1 pathway", "setting": "ABCA1 [1]", "result": "mimic apoA-I"}, {"measurement": "ABCA1 dependent cholesterol efflux activity", "setting": "ABCA1 [6]; peptide treated 1 hour with a 25 molar excess of HOCl, versus untreated peptide", "result": "significantly reduced"}, {"measurement": "ability to remove cholesterol by ABCA1-dependent mechanism", "setting": "ABCA1 [9]", "result": "significantly reduced"}]}
{"substance": "Tyr192Phe apoA-I: Tyr192Phe mutant of human apoA-I made by PCR mutagenesis, bacterially expressed", "values": [{"measurement": "chlorination of residue 192 by HOCl", "setting": "[10]", "result": "fails to chlorinate"}, {"measurement": "cholesterol efflux promoted", "setting": "ABCA1 [6]", "result": "significantly decreased"}, {"measurement": "protective effect against apoA-I inactivation", "setting": "ABCA1 [6]; by either HOCL or the MPO system", "result": "only a small protective effect"}, {"measurement": "ability to promote cholesterol efflux", "setting": "ABCA1 [6]; increasing H2O2 in the complete MPO system, then incubated with PilB", "result": "nearly the same as that of native apoA-I"}, {"measurement": "rates of cholesterol efflux compared with native apoA-I", "setting": "ABCA1 [6]; no oxidant, increasing protein concentrations", "result": "virtually identical"}, {"measurement": "resistance to oxidative inactivation by MPO", "setting": "ABCA1 [6]; when the concentration of H2O2 was high", "result": "somewhat resistant"}]}
